Each block holds one substance with its values, some of them ahead of it.
Tests used:
[1] = molecular target: D3H44 light chain Q124R_T178R, N-terminal HA or FLAG tag; test: LCCA, SPR of light chain tags, L1:L2 DNA 1:3 norm. to 1:1; other light chain m25
[2] = molecular target: D3H44 light chain Q124E_V133W_T180E, N-terminal HA or FLAG tag; test: LCCA, SPR of light chain tags, L1:L2 DNA 1:3 norm. to 1:1; other light chain m14
[3] = molecular target: D3H44 light chain Q124R_Q160K_T178R, N-terminal HA or FLAG tag; test: LCCA, SPR of light chain tags, L1:L2 DNA 1:9 norm. to 1:1; other light chain m21
[4] = molecular target: D3H44 light chain Q124E_T178E_T180E, N-terminal HA or FLAG tag; test: LCCA, SPR of light chain tags, L1:L2 DNA 1:9 norm. to 1:1; other light chain m17
[5] = molecular target: D3H44 light chain Q124E_T178E_T180E, N-terminal HA or FLAG tag; test: LCCA, SPR of light chain tags, L1:L2 DNA 1:3 norm. to 1:1; other light chain m17
[6] = molecular target: D3H44 light chain Q124R_T178R, N-terminal HA or FLAG tag; test: LCCA, SPR of light chain tags, L1:L2 DNA 1:3 norm. to 1:1; other light chain m16
[7] = molecular target: D3H44 light chain Q124E_S176L_T180E, N-terminal HA or FLAG tag; test: LCCA, SPR of light chain tags, L1:L2 DNA 1:3 norm. to 1:1; other light chain m14
[8] = molecular target: D3H44 light chain Q124R_Q160K_T178R, N-terminal HA or FLAG tag; test: LCCA, SPR of light chain tags, L1:L2 DNA 1:3 norm. to 1:1; other light chain m21
[9] = molecular target: D3H44 light chain Q124E_Q160E_T180E, N-terminal HA or FLAG tag; test: LCCA, L1:L2 DNA 1:3, SPR of light chain tags; competing light chain m16
[10] = molecular target: D3H44 light chain T178R, N-terminal HA or FLAG tag; test: LCCA, L1:L2 DNA 1:3, SPR of light chain tags; competing light chain m13
[11] = molecular target: D3H44 light chain Q124R_Q160K_T178R, N-terminal HA or FLAG tag; test: as above
[12] = molecular target: D3H44 light chain Q124E_T180E, N-terminal HA or FLAG tag; test: LCCA, L1:L2 DNA 1:3, SPR of light chain tags; competing light chain m10
[13] = molecular target: D3H44 light chain Q124E_T180E, N-terminal HA or FLAG tag; test: LCCA, L1:L2 DNA 1:3, SPR of light chain tags; competing light chain m14
[14] = molecular target: D3H44 light chain Q124R_T178K, N-terminal HA or FLAG tag; test: LCCA, L1:L2 DNA 1:3, SPR of light chain tags; competing light chain m11
[15] = molecular target: D3H44 light chain Q124R_T178R, N-terminal HA or FLAG tag; test: as above
[16] = molecular target: D3H44 light chain Q124E_Q160E_T180E, N-terminal HA or FLAG tag; test: LCCA, L1:L2 DNA 1:9, SPR of light chain tags; competing light chain m12
[17] = molecular target: D3H44 light chain Q124R_T178K, N-terminal HA or FLAG tag; test: LCCA, L1:L2 DNA 1:9, SPR of light chain tags; competing light chain m11
[18] = molecular target: D3H44 light chain Q124R_T178R, N-terminal HA or FLAG tag; test: as above
[19] = molecular target: D3H44 light chain Q124E_Q160E_T180E, N-terminal HA or FLAG tag; test: LCCA, L1:L2 DNA 1:9, SPR of light chain tags; competing light chain m16
[20] = molecular target: D3H44 light chain Q124E_Q160E_T180E, N-terminal HA or FLAG tag; test: LCCA, L1:L2 DNA 1:3, SPR of light chain tags; competing light chain m12
[21] = molecular target: tissue factor (TF) antigen (UniProt P13726); test: SPR KD against wild-type D3H44 Fab; * estimated value (estimated wild-type KD […])
[22] = molecular target: tissue factor (TF) antigen (UniProt P13726); test: SPR (ProteOn), Fab captured on anti-penta-His, TF analyte, 1:1 fit; * estimated from a Fab differing only in the L chain tag
[23] = molecular target: tissue factor (TF) antigen (UniProt P13726); test: SPR (ProteOn), Fab captured on anti-penta-His, TF analyte, 1:1 fit
[24] = molecular target: tissue factor (TF) antigen (UniProt P13726); test: SPR KD against wild-type D3H44 Fab (reference KD 0.157 nM)
[25] = molecular target: tissue factor (TF) antigen (UniProt P13726); test: SPR, Fab captured on anti-penta-His surface, TF as analyte, 1:1 fit; estimated value, from a Fab that differs only in the L chain tag
[26] = molecular target: tissue factor (TF) antigen (UniProt P13726); test: SPR, Fab captured on anti-penta-His surface, TF as analyte, 1:1 fit; estimated value, from a Fab that differs only in the L chain tag; against wild-type D3H44 Fab
[27] = molecular target: tissue factor (TF) antigen (UniProt P13726); test: SPR, Fab captured on anti-penta-His surface, TF as analyte, 1:1 fit; Fab batch C; against wild-type D3H44 Fab
[28] = molecular target: tissue factor (TF) antigen (UniProt P13726); test: SPR, Fab captured on anti-penta-His surface, TF as analyte, 1:1 fit; Fab batch C
[29] = molecular target: tissue factor (TF) antigen (UniProt P13726); test: vs wild-type D3H44 Fab (KD 0.157 nM); SPR, Fab captured on anti-penta-His, TF as analyte; batch C (+)
[30] = molecular target: tissue factor (TF) antigen (UniProt P13726); test: SPR, Fab captured on anti-penta-His, TF as analyte, 1:1 fit; batch C (+)

H2L2:H2L1 normalized median ratio [9]: 83 share of 100
H2L2:H2L1 normalized median ratio [10]: 4 share of 100
H2L2:H2L1 normalized median ratio [11]: 2 share of 100
H2L2:H2L1 normalized median ratio [12]: 96 share of 100
H2L2:H2L1 normalized median ratio [13]: 98 share of 100
H2L2:H2L1 normalized median ratio [14]: 17 share of 100
H2L2:H2L1 normalized median ratio [15]: 19 share of 100
H2L2:H2L1 normalized median ratio [16]: 86 share of 100
H2L2:H2L1 normalized median ratio [17]: 11 share of 100
H2L2:H2L1 normalized median ratio [18]: 14 share of 100
H2L2:H2L1 normalized median ratio [19]: 89 share of 100
H2L2:H2L1 normalized median ratio [20]: 81 share of 100
Substance: D3H44 Fab heavy chain S186R, C-terminal ABD2-His6 tag

Change in KD with respect to wild type (-(log(KD design) - log(KD wt))) [21]: -0.23
Kd [23]: 0.27 nM
Change in KD with respect to wild type (-(log(KD design) - log(KD wt))) [24]: -0.23
Kd [22]: 0.27 nM
Substance: D3H44 Fab heterodimer, H: L143E_K145T_Q179E, L: Q124R_T178R (H1L1 Fab of LCCA sets 9663, 9666, 9667, 9671, 9675, 9679 and 9682)

Kd [25]: 0.19 nM
change in median KD compared to wild type, -(log(KD design)-log(KD wt)) [26]: -0.08
change in median KD compared to wild type, -(log(KD design)-log(KD wt)) [27]: -0.08
Kd [28]: 0.19 nM
Substance: D3H44 H1L1 Fab heterodimer of LCCA Set # 9657 (H1 L143E_K145T_Q179E; L1 Q124R_T178K)

change in median KD compared to wild type, -(log(KD design)-log(KD wt)) [29]: 0.39
Kd [30]: 0.06 nM
Substance: H1L1 Fab heterodimer of LCCA set 9620 (D3H44 Fab, H1 L143E_K145T_Q179D, L1 Q124R_Q160K_T178R)

The remaining lines, values behind:

Substance: D3H44 Fab heavy chain L124A_Q179K, ABD2-His6 tagged
H1L1:H1L2 normalized median ratio [1]: 5%
H1L1:H1L2 normalized median ratio [2]: 95%
H1L1:H1L2 normalized median scalar value ln(r1/f1) [2]: 2.9

Substance: D3H44 Fab heavy chain L124A_S186K, ABD2-His6 tagged
H1L1:H1L2 normalized median ratio [1]: 5%
H1L1:H1L2 normalized median ratio [2]: 95%
H1L1:H1L2 normalized median scalar value ln(r1/f1) [2]: 2.98

Substance: D3H44 Fab heavy chain S186R, ABD2-His6 tagged
H2L2:H2L1 normalized median ratio [3]: 13%
H2L2:H2L1 normalized median ratio [4]: 87%
H2L2:H2L1 normalized median ratio [5]: 94%
H2L2:H2L1 normalized median ratio [6]: 7%
H2L2:H2L1 normalized median ratio [7]: 93%
H2L2:H2L1 normalized median ratio [8]: 6%

Substance: D3H44 Fab heterodimer, H: L143E_K145T_Q179D, L: Q124R_Q160K_T178R (H1L1 Fab of LCCA set 9623)
Change in KD with respect to wild type (-(log(KD design) - log(KD wt))) [21]: 0.39
Kd [22]: 0.06 nM

Substance: D3H44 Fab heterodimer, H: L143E_K145T_Q179D, L: Q124R_T178K (H1L1 Fab of LCCA set 9629)
Change in KD with respect to wild type (-(log(KD design) - log(KD wt))) [21]: 0.12
Kd [22]: 0.12 nM

Substance: D3H44 H1L1 Fab heterodimer of LCCA Set # 9626 (H1 L143E_K145T_Q179D; L1 Q124R_T178K)
Kd [25]: 0.12 nM
change in median KD compared to wild type, -(log(KD design)-log(KD wt)) [26]: 0.12
change in median KD compared to wild type, -(log(KD design)-log(KD wt)) [27]: 0.12
Kd [28]: 0.12 nM

Substance: D3H44 H1L1 Fab heterodimer of LCCA Set # 9707 (H1 L143E_K145T_S188L; L1 Q124R_Q160K_T178R)
Kd [25]: 0.24 nM
change in median KD compared to wild type, -(log(KD design)-log(KD wt)) [26]: -0.19

Substance: H1L1 Fab heterodimer of LCCA set 9654 (D3H44 Fab, H1 L143E_K145T_Q179E, L1 Q124R_Q160K_T178R)
change in median KD compared to wild type, -(log(KD design)-log(KD wt)) [29]: 0.02
Kd [30]: 0.15 nM

Substance: H1L1 Fab heterodimer of LCCA sets 9801 and 9802 (D3H44 Fab, H1 Q179R, L1 Q124E_Q160E_T178E)
change in median KD compared to wild type, -(log(KD design)-log(KD wt)) [29]: 0.16
Kd [30]: 0.11 nM

From US11306156
